Values quoted from earlier work as cited in publication PMC3642679.

Target: sliding clamp beta (Escherichia coli) (UniProt P0A988)
Sequence of UniProt P0A988 (P0A988 whole entry): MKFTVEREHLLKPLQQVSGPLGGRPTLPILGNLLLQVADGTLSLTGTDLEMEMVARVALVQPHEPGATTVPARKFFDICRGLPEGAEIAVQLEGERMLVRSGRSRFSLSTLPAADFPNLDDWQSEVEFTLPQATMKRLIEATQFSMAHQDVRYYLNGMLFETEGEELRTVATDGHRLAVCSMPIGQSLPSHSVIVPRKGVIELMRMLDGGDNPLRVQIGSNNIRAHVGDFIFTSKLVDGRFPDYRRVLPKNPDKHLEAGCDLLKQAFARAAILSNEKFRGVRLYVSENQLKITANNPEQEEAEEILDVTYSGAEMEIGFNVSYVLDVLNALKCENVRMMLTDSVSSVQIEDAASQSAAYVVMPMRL

Pol III alpha (from UniProt P10443)
Kd: 1 µM
